The record followed here is US20120110693, “TARGETING NUCLEIC ACIDS IN MITOCHONDRIA” (published 2012).

For data set [1], the target named is DHFR (mouse, recombinant) (Mus musculus, UniProt P00375 SEQ:4-190). As to the kind of experiment: Southwestern blot; 10 mM Tris pH 7.5, 5 mM Mg acetate, 2 mM DTT, 4 C. Conditions: tags: His tag; label: 5'-32P. The procedure: The DNA substrate selected in this case corresponds to an oligonucleotide (single strand DNA) corresponding to the sequence of cytosolic tRNAAla of A. thaliana (SEQ ID NO: 4). This chemically synthesized oligonucleotide (Sigma Aldrich) and labeled at 5′ was incubated with a membrane onto which the recombinant proteins DHFR and GFP were transferred. No interaction between GFP and the oligonucleotide was observed while a signal was obtained, reflecting an interaction between DHFR and the oligonucleotide.

Data set [2] has as its target T1, pSu9-DHFR (mouse DHFR fused to Neurospora crassa Su9 presequence) (Mus musculus, UniProt P00375 SEQ:1-259).
T1 chain: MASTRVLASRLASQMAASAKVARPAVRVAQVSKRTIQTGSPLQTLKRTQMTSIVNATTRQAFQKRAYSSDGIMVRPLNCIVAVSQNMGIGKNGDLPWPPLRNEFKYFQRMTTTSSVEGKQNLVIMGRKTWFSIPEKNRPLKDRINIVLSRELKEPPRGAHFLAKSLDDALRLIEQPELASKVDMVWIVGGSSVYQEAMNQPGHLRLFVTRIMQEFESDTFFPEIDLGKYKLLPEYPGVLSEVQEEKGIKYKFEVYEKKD
Nature of the data set: EMSA; shift increases with protein; legend names pSu9-DHFR, text says DHFR; 10 mM Tris pH 7.5, 50 mM NaCl, 1 mM MgCl2, 25 C. The settings on record: label: 32P-UTP; tRNA. The procedure: The RNA-protein interaction was studied by means of the shift gel technique. The procedure used is the procedure No. TB110 of Promega, entitled <<gel shift assay system >>. The reaction is conducted in a 9 μL reaction volume comprising: […] of protein, 2 μL of gel shift buffer 5× (20% (v/v) glycerol, 5 mM MgCl₂, 2.5 mM EDTA, 2.5 mM DTT, 250 mM NACl, 50 mM Tris-HCL pH 7.5). The medium is incubated for 10 minutes at room temperature. One μL of radiolabelled tRNA (about 10 fmol corresponding to 20,000 cpm) is then added and the whole is then incubated under mild stirring at 25° C. After migration, the medium is added with one μL of load buffer (250 mM Tris-HCl pH 7.5, 40% (v/v) glycerol). The gel is prepared from a solution of 4% acrylamide/N,N′-methylene bisacrylamide (19/1) in TBE 0.5× buffer (45 mM Tris 45, 1.25 mM EDTA pH 8.3, 45 mM boric acid). The polymerization of the gel is catalyzed by adding 0.04% (w/v) APS and 0.04% (v/v) TEMED. Before charging the samples, the gel is set to a voltage of 350 V for 10 mins. Migration is then carried out for 20 mins at 350 V in the TBE 0.5× buffer. The gel is dried and then exposed against a Phosphorimager plate (Fuji) or subject to autoradiography.
The nucleic acid substrate selected in this case corresponds to the cytosolic tRNAAla of Arabidopsis thaliana (SEQ ID NO: 4). […]

The target in a further data set is pSu9-GFP (UniProt P42212 SEQ:1-307). As to the kind of experiment: stated unable to interact with tRNAAla; no effect on import. Conditions: label: 32P-UTP; tRNA.

B1: tRNAAla-sequence DNA oligonucleotide (ssDNA)
DNA: GGGGATGTAGCTCATATGGTAGAGCGCTCGCTTTGCATGCGAGAGGCACAGGGTTCGATTCCCTGCATCTCCACCA
As to B1, the binding result in data set [1] was “binds”.

B2: cytosolic tRNAAla transcript (A. thaliana) (ssRNA)
RNA: GGGGAUGUAGCUCAUAUGGUAGAGCGCUCGCUUUGCAUGCGAGAGGCACAGGGUUCGAUUCCCUGCAUCUCCACCA
As to B2, the binding result in data set [2] is “binds”; with pSu9-GFP, “no binding”.
